± gives the uncertainty stated by the source.

Results on 60 variants are retold here after the Human Domainome abundance scans (Beltran et al. 2025).

The chains are these.
B1: Chromodomain-helicase-DNA-binding protein 7, residues 2564 to 2605; numbered along this chain, Q9P2D1 (parent)
chain: DPDTRIPVINLEDGTRLVGEDAPKNKDLVEWLKLHPTYTVDM

In the data set the parent is B1. The data set is described as follows: abundance fitness (aPCA) (normalised: wild type 0, dead -1); higher = more abundant; growth selection in yeast, the domain comes from the species named. Particulars: Homo sapiens.
For DPDTRIPVINLEDGTRLVGEDAPKNKDAVEWLKLHPTYTVDM [L28A], the abundance fitness was -0.292 ± 0.067.

On to DPDTRIPVINLEDGTRLVGEDAPKNKDEVEWLKLHPTYTVDM [L28E], for which the abundance fitness is -0.41 ± 0.072.

Regarding DPDTRIPVINLEDGTRLVGEDAPKNKDSVEWLKLHPTYTVDM [L28S], the abundance fitness is -0.39 ± 0.062.

DPDTRIPVINLEDQTRLVGEDAPKNKDLVEWLKLHPTYTVDM [G14Q]: the abundance fitness was determined as 0.007 ± 0.11.

In the case of DPDTRIPVINLEDWTRLVGEDAPKNKDLVEWLKLHPTYTVDM [G14W], the abundance fitness was -0.084 ± 0.29.

As for DPDTRIPVINLEDGTRLVGEDAPKNKDLVEWTKLHPTYTVDM [L32T], the abundance fitness was -0.334 ± 0.14.

Turning to DPDTRIPVINLEDGTRLVGEDAPKNKDLVEWLKLHPTYTVRM [D41R], the abundance fitness is -0.841 ± 0.058.

As for DPDTRIPVINLEDGTRLVGEDAPKNKDLVEWLKLHPTYTVLM [D41L], the abundance fitness was -0.594 ± 0.053.

DPDTRIPVINLEDGTRLVGEDAPKNKDLVEWLKLHPTYTVQM [D41Q]: the abundance fitness was -0.422 ± 0.48.

Take DPDTRIPVINLEDGTRHVGEDAPKNKDLVEWLKLHPTYTVDM [L17H]: the abundance fitness is -0.095 ± 0.41.

Take DPDTRIPVINLEDGTRLVGEDAPKNKDLVEWLKLHPTYMVDM [T39M]: the abundance fitness is -0.382 ± 0.11.

Take DPDTRIPVINLEDGTRLVGADAPKNKDLVEWLKLHPTYTVDM [E20A]: the abundance fitness is -0.163 ± 0.11.

Consider DPDTRIPVINLEDGTRLVGNDAPKNKDLVEWLKLHPTYTVDM [E20N], for which the abundance fitness is -0.167 ± 0.064.

Consider DPDTRIPVINLEDGTRLVGKDAPKNKDLVEWLKLHPTYTVDM [E20K], for which the abundance fitness is -0.125 ± 0.1.

On to DPDTRIPVINLEDGTRLVGIDAPKNKDLVEWLKLHPTYTVDM [E20I], for which the abundance fitness was -0.208 ± 0.063.

On to DPDTRIPVINLEDGTRLVGEDAPKNKDLVEALKLHPTYTVDM [W31A], for which the abundance fitness is -0.166 ± 0.094.

Turning to DDDTRIPVINLEDGTRLVGEDAPKNKDLVEWLKLHPTYTVDM [P2D], the abundance fitness was -0.301 ± 0.19.

With DPDTRIPVINLEDGTRLVGEDAPWNKDLVEWLKLHPTYTVDM [K24W], the abundance fitness is -0.426 ± 0.078.

For the variant DPDTRIPVINLEDGTRLVGEDAPVNKDLVEWLKLHPTYTVDM [K24V], the abundance fitness is -0.475 ± 0.058.

Turning to DPDTRIPVINLEDGTRLVGEDAPYNKDLVEWLKLHPTYTVDM [K24Y], the abundance fitness is -0.237 ± 0.07.

DPDTRIPVINLEDGTRLVGEDAPKNKDLVEWLKLGPTYTVDM [H35G]: the abundance fitness is -0.758 ± 0.053.

In the case of DPDTRIPVINLEDGTRLWGEDAPKNKDLVEWLKLHPTYTVDM [V18W], the abundance fitness is -0.132 ± 0.053.

DPDTRIPVINLEDGTRLRGEDAPKNKDLVEWLKLHPTYTVDM [V18R]: the abundance fitness was -0.081 ± 0.055.

Consider DPDTRIPVINLENGTRLVGEDAPKNKDLVEWLKLHPTYTVDM [D13N], for which the abundance fitness stood at 0.046 ± 0.087.

As to DPDTRIPVINLEDGTRLVGEDAPKNQDLVEWLKLHPTYTVDM [K26Q], the abundance fitness was -0.039 ± 0.16.

Take DPDTRIPVINLEDGTRLVGEDAPKNEDLVEWLKLHPTYTVDM [K26E]: the abundance fitness is 0.154 ± 0.16.

For DPDTRIPVINLEDGTRLVGEDAPKNVDLVEWLKLHPTYTVDM [K26V], the abundance fitness was -0.166 ± 0.059.

Consider DPDTRIPVINLEDGTRLVGEDAPKNKDLVEWLKTHPTYTVDM [L34T], for which the abundance fitness turned out to be 0.03 ± 0.093.

For DPDTRIPVINLEDGTRLVGEDAPKNKDLVEWLKFHPTYTVDM [L34F], the abundance fitness is -0.334 ± 0.12.

Turning to DPDTRIPVINLEDGTRLVGEDAPKNKDLVEWLKLHPIYTVDM [T37I], the abundance fitness is -0.221 ± 0.1.

As for DPDTRIPVINLEDGTWLVGEDAPKNKDLVEWLKLHPTYTVDM [R16W], the abundance fitness is -0.173 ± 0.069.

For the variant DPDTTIPVINLEDGTRLVGEDAPKNKDLVEWLKLHPTYTVDM [R5T], the abundance fitness was -0.244 ± 0.1.

As to DPDTRIPVINLEDGTRLVGEDAQKNKDLVEWLKLHPTYTVDM [P23Q], the abundance fitness is -0.252 ± 0.14.

Turning to DPDTRIPVINLEDGTRLVGEDAIKNKDLVEWLKLHPTYTVDM [P23I], the abundance fitness is -0.496 ± 0.071.

As for DPDTRIPVINLEDGTRLVGEDAWKNKDLVEWLKLHPTYTVDM [P23W], the abundance fitness was -1.09 ± 0.089.

On to DPDTRIPVINLEDGTRLVGEDAKKNKDLVEWLKLHPTYTVDM [P23K], for which the abundance fitness was -0.515 ± 0.14.

Consider DPDTRIPVINLEDGTRLVGEKAPKNKDLVEWLKLHPTYTVDM [D21K], for which the abundance fitness is -0.134 ± 0.068.

Consider DPDTRIPVINLEDGTRLVGEDAPKAKDLVEWLKLHPTYTVDM [N25A], for which the abundance fitness is -0.206 ± 0.053.

With DPDTRIPVINLEDGTRLVGEDAPKFKDLVEWLKLHPTYTVDM [N25F], the abundance fitness is -0.249 ± 0.097.

Consider DPDTRIPVINLEDGTRLVGEDFPKNKDLVEWLKLHPTYTVDM [A22F], for which the abundance fitness is -0.466 ± 0.34.

With DPDTRIPVINLEDGTRLVGEDPPKNKDLVEWLKLHPTYTVDM [A22P], the abundance fitness was -0.622 ± 0.11.

For DPDTRIPVINLEDGTRLVGEDYPKNKDLVEWLKLHPTYTVDM [A22Y], the abundance fitness is -1.03 ± 0.09.

In the case of DPDTRIPVLNLEDGTRLVGEDAPKNKDLVEWLKLHPTYTVDM [I9L], the abundance fitness amounted to 0.026 ± 0.078.

Consider DPDTRIPVANLEDGTRLVGEDAPKNKDLVEWLKLHPTYTVDM [I9A], for which the abundance fitness was -0.111 ± 0.1.

DPDTRIPVCNLEDGTRLVGEDAPKNKDLVEWLKLHPTYTVDM [I9C]: the abundance fitness was -0.123 ± 0.09.

For the variant DPDTRIPVIWLEDGTRLVGEDAPKNKDLVEWLKLHPTYTVDM [N10W], the abundance fitness was -0.549 ± 0.22.

Regarding DPDTRIPVINLEDGTRLVGEDAPKNKDLVAWLKLHPTYTVDM [E30A], the abundance fitness stood at 0.027 ± 0.12.

In the case of DPDTRIPVINLEDGTRLVGEDAPKNKDLVNWLKLHPTYTVDM [E30N], the abundance fitness was -0.065 ± 0.074.

Regarding DPDTRIPVINLEDGTRLVGEDAPKNKDLVVWLKLHPTYTVDM [E30V], the abundance fitness was -0.391 ± 0.068.

Turning to DPDTRIPVINNEDGTRLVGEDAPKNKDLVEWLKLHPTYTVDM [L11N], the abundance fitness is 0.242 ± 0.071.

As to DPDTRIPVINFEDGTRLVGEDAPKNKDLVEWLKLHPTYTVDM [L11F], the abundance fitness came to 0.015 ± 0.13.

DPDTRIPVINLEDGTRLVGEDAPKNKDLVEWLKLHGTYTVDM [P36G]: the abundance fitness was -0.484 ± 0.057.

Turning to DPDTRIPVINLEDGTRLVGEDAPKNKDLVEWLKLHETYTVDM [P36E], the abundance fitness is -0.406 ± 0.071.

Take DPDTRIPVINLEDGTRLVGEDAPKNKDLVEWLKLHDTYTVDM [P36D]: the abundance fitness was -0.685 ± 0.17.

For the variant DPDTRIPVINLEDGTRLVGEDAPKNKDLVEWLKLHPTDTVDM [Y38D], the abundance fitness is -0.278 ± 0.078.

Turning to DPDTRIPVINLEDGTRLVGEDAPKNKDLVEWLKLHPTYTHDM [V40H], the abundance fitness is -0.372 ± 0.074.

For the variant DPDTRIPVINLEDGTRLVGEDAPKNKDLVEWLKLHPTYTMDM [V40M], the abundance fitness was -0.379 ± 0.083.

Consider DPDTRIPQINLEDGTRLVGEDAPKNKDLVEWLKLHPTYTVDM [V8Q], for which the abundance fitness is -0.384 ± 0.21.

For the variant DPDTRIPPINLEDGTRLVGEDAPKNKDLVEWLKLHPTYTVDM [V8P], the abundance fitness was -0.534 ± 0.075.

Take DPCTRIPVINLEDGTRLVGEDAPKNKDLVEWLKLHPTYTVDM [D3C]: the abundance fitness was -0.749 ± 0.22.
